Measured values reported in PMC5291488, “3,4-Dihydroxyphenylacetate 2,3-dioxygenase from Pseudomonas aeruginosa: An Fe(II)-containing enzyme with fast turnover” (PLoS ONE, 2017).

Substrate: O=C(O)Cc1ccc(O)c(O)c1
Test: purified protein
Assay type: biochemical, Pseudomonas aeruginosa
Conditions: air-saturated (O2 ~260 μM), 50 mM sodium phosphate pH 7.5, 25 °C, Fe(II)/DTT-activated enzyme, stock kept with 0.5 mM ascorbic acid as preservative

B1: PaDHPAO (3,4-dihydroxyphenylacetate 2,3-dioxygenase) (Pseudomonas aeruginosa PAO1) (protein)
chain: MGKVALAAKITHVPSLYLSELPGPRHGCRQPAIDGHREIGRRCRELGVDTIVVFDTHWLVNAGYHINCAPHFEGLYTSNELPHFIANMEYGFPGNPELGRILAEGCNALGVETLAHDATTLGPEYGTLVPMRYMNQDRHFKVVSVSALCTVHYLNDSARLGWAMRKAVEEHYDGTVAFLASGSLSHRFAQNGQAPDFSDRIWSPFLEVLDHEVVQMWQEGRWAEFCGMLPEYASKGHGEGFMHDTAMLLGALGWSAYDGKAEVVTPYFGSSGTGQINAVFPVTAQDGSAIPAAQAGNPAGASCASRL
notes: N-terminus MGKVA from primer
- Km: 58 ± 8 µM
- kcat: 63.5 s⁻¹
- kcat/Km: 1.1e+06 M⁻¹ s⁻¹
